# Laboratory results published in the supplement of paper PMC12042874.
# ± gives the uncertainty stated by the source.
# Assay: amyloid nucleation score (Sup35N fusion, yeast selection) (log enrichment); library NNK3; higher = more nucleation; inactive = no reads after selection
# How it was run: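 Plasmid inserts were Illumina-sequenced at input and output from psi-negative yeast expressing Sup35N fused to peptides of 20 random codons. The yeast were induced with 100 μM copper sulfate for 24 hours and grown 7 days at 30°C on medium lacking adenine and uracil, and sequences with under 100 input reads were excluded. Nucleation score is the DiMSum log enrichment of output over input reads, centred on the mode score of non-aggregating sequences.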
row,Substance,amyloid nucleation score
1,LDAWRWMSLTADYGKSLVTR,inactive
2,LDDRQSVCGTAYKVMTDIS,inactive
3,LDFANCFLVQCL,inactive
4,LDGGMNNRR,inactive
5,LDHRGIRFFN,inactive
6,LDILVRETDQSLWDFQLSSV,0.499 ± 0.13
7,LDKVSNSCTPIWPFVIET,inactive
8,LDLNVIDRGWTPGTGTVQRM,inactive
9,LDNVR,inactive
10,LDQTSRIVYVFTCSYWLDKV,inactive
11,LDSADTNDHPFSWYNGMLGT,inactive
12,LDSGISNHPNFIFTHTEFIN,inactive
13,LDTVTCNSLETAFGSFKNWL,inactive
14,LDVGIVYSLVVCRKIRRSL,inactive
15,LDVIFSKTFMEIVTLVVSLD,inactive
16,LDVLKMGIVV,inactive
17,LEAHESIRFCP,inactive
18,LEEDVHISFHHIFDRFCPTT,inactive
19,LENNIRSDSTFSTWTHDQCQ,inactive
20,LERYWCTNRGFNRWMQAYKD,inactive
21,LFAAYCFVYDIQFTRVPGAW,inactive
22,LFALSWTS,0.182 ± 0.35
23,LFARRVGSYCVIVCQPVLWE,inactive

row,Substance,amyloid nucleation score
1,LFCGT,inactive
2,LFDFHSSCKSAVIAYLLSRR,0.138 ± 0.47
3,LFDRTLL,inactive
4,LFEVSS,inactive
5,LFFCHYILY,1.58 ± 0.087
6,LFFLRRNCHTDVSSLEYDNA,inactive
7,LFFLTCRCVRNAYHRYMVCI,inactive
8,LFGFLYFVV,-0.564 ± 0.82
9,LFGTRIYGLFLCSLNLCRRV,inactive
10,LFHSAMNGSHFSTVHSNSVI,inactive
11,LFIMFCFGIRCLEPDIRHCY,inactive
12,LFKGGDSICYSHWSVRSSRK,1.09 ± 0.12
13,LFLAKRSLSDTLFQPDPFSR,inactive
14,LFLDVSIYVCPEGILRKS,2.65 ± 0.084
15,LFLKSLCCFRICTNFIKVEL,inactive
16,LFLRPNANRYVH,inactive
17,LFLRTEKIRFRSTRLVTLSC,inactive
18,LFLYLCTVYNDFKELQPRNL,2.67 ± 0.07
19,LFMGCPVEV,-0.515 ± 0.62
20,LFMTRSFILYFTYPFRYGVV,inactive
21,LFRLYKYLQCPSQGWCPRH,inactive
22,LFSEFQ,0.574 ± 0.32
23,LFSGSHWCRDNMWSSGAIDA,inactive

row,Substance,amyloid nucleation score
1,LFSNSLNFLIK,0.679 ± 0.28
2,LFSWRKYGVNHQLLGVEIQS,inactive
3,LFVFIYSVSGLLDDGVGLGG,inactive
4,LFVLSTKSLFP,1.39 ± 0.089
5,LFYLYF,inactive
6,LGCRYFHYAILNPHQLDKIG,inactive
7,LGFMKSFLGYSY,inactive
8,LGIQYLDETHCPKSTSKGFS,inactive
9,LGITNGRL,inactive
10,LGLDTSSSVYCQSCGVRFSV,inactive
11,LGLMLDILRKQDC,inactive
12,LGMCSHESYNLHEEICIW,inactive
13,LGNISCELARIELHAPAIR,inactive
14,LGNSAKVVLRWVEGVGLGVA,inactive
15,LGRANIHATIACM,inactive
16,LGRCDVIVKEFVTIIA,inactive
17,LGSIRSSKCKNLVICIGPMC,2.41 ± 0.051
18,LGSVVRRDEGIVGESY,0.078 ± 0.6
19,LGSWLWR,inactive
20,LGTWFWVVVG,inactive
21,LGVCSGH,inactive
22,LGYMLNGGRMQKNATNKSGA,inactive
23,LHIGLNS,inactive

row,Substance,amyloid nucleation score
1,LHMIVALSSSSSMTYDVRVV,inactive
2,LHWSIDR,inactive
3,LHYICQKLGGMWMVLVCRAC,inactive
4,LHYLLTLARKSEWHYLLDIR,inactive
5,LIFGVIPCQPR,inactive
6,LIFWRPIGDEHYLWPLPFYL,inactive
7,LIGFLNNSVFMSAGY,inactive
8,LIGQFISYIKSVIGSDRKGC,inactive
9,LIHICHRVQPHMSCDCVAMW,inactive
10,LIKCPIRYDDYKRPWLAS,inactive
11,LILCRCCSGVYRTRVMKLLL,inactive
12,LIPSKRTSDRLFLGPATLDF,inactive
13,LIRNEGFCEKS,0.244 ± 0.14
14,LIRTARSLYWAYVHLAVSWR,inactive
15,LITCI,inactive
16,LKAKCVIMSLPLDMGYHGKR,inactive
17,LKDCTCEFIFMTGKYCIYFR,-0.495 ± 0.76
18,LKISALTIESMF,inactive
19,LKLFWSLET,inactive
20,LKNVTDKMHTYLRLEGSRHV,inactive
21,LKRSFNDFEFH,inactive
22,LKRYFI,inactive
23,LKTNCTPNMLFGFLSEMMRC,inactive

row,Substance,amyloid nucleation score
1,LKVFKWKISTLMKAAQPIAS,inactive
2,LKVPSVVNR,inactive
3,LKWQVRHLWGNDVVGHRYTH,-0.546 ± 0.6
4,LKYSDSSDI,0.235 ± 0.26
5,LLERDYR,inactive
6,LLFALDGFIAGWMCMWGDRF,inactive
7,LLFQL,inactive
8,LLFQSIVVY,inactive
9,LLFSGHYVGAYLGYVFPICS,inactive
10,LLGSFEGLIALYSGGWMAYR,-0.108 ± 0.77
11,LLGYASMASSFIYIQHNVLE,inactive
12,LLIFMFCLAFVFFFMAKDGN,inactive
13,LLIIGLKSAVGVW,inactive
14,LLIRVLYLWSLESISNG,inactive
15,LLKCYRPFSVFIYFNVLASG,inactive
16,LLKIFNNEVKITITFCLLYV,inactive
17,LLKRKLIVAFKKSMLFDFMV,inactive
18,LLLCS,0.402 ± 0.18
19,LLLRFFRYLGYKLMRTIE,inactive
20,LLLTYFMMGYYVVWYVFGYW,inactive
21,LLNTRGSRVMLLGHRLFDN,inactive
22,LLNWSYIKRLFLVGIKSGHR,inactive
23,LLSIRTSSCFCKRGSTKFED,0.176 ± 0.33

row,Substance,amyloid nucleation score
1,LLTARTITSCKQWPGTSRYT,inactive
2,LLTFSMVDKFLSDNSYLNGI,inactive
3,LLVGEIGYLEHTMHNCEVEG,inactive
4,LLVLRGYSDVIFKNTLYGNE,inactive
5,LLVYAVENPGLVWNSRHGLF,-1.37 ± 2.5
6,LLVYFE,inactive
7,LLWVQQHWLKNDTLVTYKAK,inactive
8,LLYMSECNELSIDRLVNLSK,inactive
9,LLYVICPVRINLRHWRATDS,0.487 ± 0.17
10,LMFGVIMPITDDMFYGQESV,inactive
11,LMIWVSDLSE,inactive
12,LMMLCLSVGMMKRSAYRLFT,inactive
13,LMQDLENVS,inactive
14,LMRNRFFNPVSGTFTASIGQ,-0.302 ± 1.1
15,LMRNSMLKTCFRSTAFH,inactive
16,LMTNRVVL,inactive
17,LMVVWMLYGNNTCYDALMLC,inactive
18,LNCAILASHSHYTK,inactive
19,LNCVSQMRVDRDANYSCNFF,-0.142 ± 0.78
20,LNEYNINDFTLFSCTFIGNV,2.73 ± 0.081
21,LNFGEFILMAGDLLTLMCVF,1.42 ± 0.12
22,LNFVWNFNWLYWFLYGIERV,inactive
23,LNGSCKCLKELFVCYRSWVN,-0.79 ± 0.93

row,Substance,amyloid nucleation score
1,LNIFTYMCVMALMCLEKITS,1.73 ± 0.11
2,LNLDCTS,inactive
3,LNLGILACSGKRLSQSCRLT,inactive
4,LNLWD,inactive
5,LNQLRSDITGLMSMTWDDLC,inactive
6,LNRSSLYFF,inactive
7,LNSIG,inactive
8,LNSKFMLASTLLAKW,inactive
9,LNSKIKLNYYLIF,0.108 ± 0.19
10,LNSYQDYSRGVLLKRKALLY,inactive
11,LNVGCLWRGDGGNRRAQWDV,inactive
12,LNYFR,inactive
13,LNYIIRRLIVIILFSQHQYY,inactive
14,LNYVLS,inactive
15,LPGFSTCFARCDWWEVQPQG,inactive
16,LPLFSLSTFFFVCVVCL,0.464 ± 0.14
17,LPLPFFQRVNNGKSVLGVHL,inactive
18,LPLSFSL,inactive
19,LPNSNTGKKCYGMNHSKENC,inactive
20,LPPFAWPRMIPWWGRAKVIS,inactive
21,LPRPFSYSGLR,-0.289 ± 0.59
22,LPSYLESYYCVRVISGFYLS,inactive
23,LPYPPAITALPRPCCVNHRV,inactive
